T1: TIGIT (on TIGIT-transfected Jurkat cells) (UniProt Q495A1 22-244, limits assumed)
T1 construct: whole, on cells; also called Jurkat TIGIT; cell-associated TIGIT
T1 sequence (looked up): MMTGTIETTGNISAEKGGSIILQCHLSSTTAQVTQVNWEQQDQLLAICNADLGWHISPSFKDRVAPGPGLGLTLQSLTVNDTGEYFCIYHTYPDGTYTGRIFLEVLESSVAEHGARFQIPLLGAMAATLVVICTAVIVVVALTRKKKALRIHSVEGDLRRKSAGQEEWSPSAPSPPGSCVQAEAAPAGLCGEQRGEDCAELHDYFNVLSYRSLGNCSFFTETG

T2: LAG-3 (on LAG-3-transfected Jurkat cells) (UniProt P18627 23-525, limits assumed)
T2 construct: whole, on cells; also called Jurkat LAG-3; cell-associated LAG-3
T2 sequence (looked up): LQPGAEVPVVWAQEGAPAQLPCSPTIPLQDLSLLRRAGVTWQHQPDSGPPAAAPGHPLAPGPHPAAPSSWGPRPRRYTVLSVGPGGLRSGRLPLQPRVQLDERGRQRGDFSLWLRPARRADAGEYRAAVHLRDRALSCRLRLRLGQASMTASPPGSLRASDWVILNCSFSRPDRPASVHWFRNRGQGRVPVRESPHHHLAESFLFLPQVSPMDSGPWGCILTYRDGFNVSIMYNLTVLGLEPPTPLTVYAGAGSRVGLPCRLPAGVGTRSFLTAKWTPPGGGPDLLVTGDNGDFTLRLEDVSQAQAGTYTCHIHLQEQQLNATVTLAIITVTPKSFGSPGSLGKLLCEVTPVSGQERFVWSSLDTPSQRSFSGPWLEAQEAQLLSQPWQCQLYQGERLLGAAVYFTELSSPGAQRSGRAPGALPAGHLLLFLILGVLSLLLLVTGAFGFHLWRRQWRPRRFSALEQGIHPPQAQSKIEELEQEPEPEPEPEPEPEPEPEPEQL


Columns and labels:
[1] = biological target: T1, TIGIT (on TIGIT-transfected Jurkat …); experiment: competition flow cytometry: blocking of biotinylated CD155 binding to Jurkat TIGIT cells
Protocol: (§1) 10⁵ cells (RKO for PD-1/PD-L1 blocking, Raji for MHC-II/LAG-3 blocking, and Jurkat TIGIT for CD155/TIGIT blocking) were distributed per well in 0.1 ml medium to 96-well V-bottom plate in duplicate. Supernatants were discarded after spinning down cells at 300 g, 5 min at room temperature. […] After incubation, cells were washed by adding 0.15 ml cell staining buffer (PBS containing 1% FBS and 0.1% NaN3) and centrifugation at 300 g, 5 min at room temperature. Supernatants were discarded and cells were washed one more time with 0.15 ml of staining buffer. Cells were subsequently resuspended in […] of 1:500 Streptavidin-PE and incubated at RT for 30 min. Cells were spun down after 0.15 ml cell staining buffer was added, resuspended in 0.12 ml of cell staining buffer, and analyzed by flow cytometry on a NovoCyte flow cytometer (Agilent).

[2] = biological target: T1, TIGIT (on TIGIT-transfected Jurkat …); experiment: flow cytometry, antibody binding to Jurkat TIGIT cells (MFI), fluorescent anti-human IgG Fc secondary
Protocol: (§2) 10⁵ cells (RKO, Jurkat TIGIT, and Jurkat LAG-3 for testing antibody binding to PD-L1, TIGIT, and LAG-3, respectively) per well were distributed in 0.1 ml medium to 96-well V-bottom plates. Supernatants were discarded after spinning down cells at 300 g, 5 min at room temperature. Cells were resuspended in […] of a serial dilution of antibodies and incubated for 1 h at room temperature. After incubation, cells were washed by adding 0.15 ml cell staining buffer (PBS containing 1% FBS and 0.1% NaN3) and centrifugation at 300 g, 5 min at room temperature. Supernatants were discarded and cells were washed one more time with 0.15 ml of staining buffer. Cells were subsequently resuspended in […] of secondary antibody (Alexa Fluor 647-conjugated AffiniPure Goat Anti-Human IgG, Fcγ Fragment Specific. Used at 1:500) and incubated at RT for 30 min. Cells were spun down after 0.15 ml cell staining buffer was added, resuspended in 0.12 ml of cell staining buffer, and analyzed by flow cytometry on a NovoCyte flow cytometer (Agilent).

[3] = biological target: T1, TIGIT (on TIGIT-transfected Jurkat …); experiment: flow cytometry blocking assay: biotinylated CD155 binding to Jurkat TIGIT cells (MFI), streptavidin detection
Protocol: as §1

[4] = biological target: T3, PD-L1 (endogenous, on RKO colon cancer cells) (human, UniProt Q9NZQ7 19-290); experiment: flow cytometry, antibody binding to PDL1+ RKO cells (MFI)
T3 construct: whole, on cells; also called cell-associated PD-L1; CD274
T3 sequence (Q9NZQ7 19-290): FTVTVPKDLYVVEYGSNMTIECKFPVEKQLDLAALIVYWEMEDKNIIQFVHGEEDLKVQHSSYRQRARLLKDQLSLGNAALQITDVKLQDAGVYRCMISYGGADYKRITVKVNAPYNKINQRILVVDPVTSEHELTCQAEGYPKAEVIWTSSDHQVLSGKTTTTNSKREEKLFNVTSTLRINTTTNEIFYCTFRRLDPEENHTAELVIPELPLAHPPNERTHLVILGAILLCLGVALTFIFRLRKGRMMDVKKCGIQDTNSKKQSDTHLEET
Protocol: as §2

[5] = biological target: T2, LAG-3 (on LAG-3-transfected Jurkat …); experiment: flow cytometry, antibody binding to Jurkat LAG-3 cells (MFI)
Protocol: as §2

IC50 [1] [nM]	EC50 [2] [nM]	IC50 [3] [nM]	binding result [4]	binding result [5]	Binder
~0.3	0.31	0.29			tiragolumab (antibody, V domains shown) VH: EVQLQQSGPGLVKPSQTLSLTCAISGDSVSSNSAAWNWIRQSPSRGLEWLGKTYYRFKWYSDYAVSVKGRITINPDTSKNQFSLQLNSVTPEDTAVFYCTRESTTYDLLAGPFDYWGQGTLVTVSS VL: not shown
~2.5	5.64	2.65	no binding (tested: 100 nM)		parental anti-TIGIT antibody (antibody, human IgG1, V domains shown, also called αTIGIT; ABT's parental anti-TIGIT antibody) VH: EVQLVESGGGLVQPGGSLRLSCAASSRTFSRYAMGWFRRAPGKEREFVASISWSGGGLEYAESVKGRFTISRDGSKNTVYLQMNSLAAEDTAVYYCAADPWGSLVNGAVRYEYWGQGTLVTVSS
~0.3	1.59	0.37		no binding (tested: 100 nM)	PD-L1/TIGIT BsAb (bispecific antibody, V domains shown, also called PD-L1/TIGIT bispecific antibody; TIGIT/PD-L1 bispecific antibody; not shown: linker peptide) V domain 1: EVQLVESGGGLVQPGGSLRLSCAASSRTFSRYAMGWFRRAPGKEREFVASISWSGGGLEYAESVKGRFTISRDGSKNTVYLQMNSLAAEDTAVYYCAADPWGSLVNGAVRYEYWGQGTLVTVSS V domain 2: not shown

— patent publication US20250270318A1 (AB THERAPEUTICS, published 2025)
